# Laboratory results: the supplement of paper PMC9112550, “Optimization of the antimicrobial peptide Bac7 by deep mutational scanning” (BMC Biology, 2022)
# System: Escherichia coli TOP10
# Experiment: shrunken log2 fold change of peptide-encoding DNA abundance (4.5 h post-induction vs induction); higher = less antimicrobial activity (less host growth inhibition)
# Conditions: time post-induction: 4.5 h; library: site-saturation at positions 5, 18, 19, 20
# 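Note: peptides expressed intracellularly from a pBAD plasmid library in pooled LB shake-flask culture, induced with 0.3% L-arabinose, DNA abundance read by NGS, three biological replicates, DESeq2 with apeglm shrinkage.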
row,Sequence,shrunken log2 fold change
1,RRIRNRPPRLPRPRPRPIKHPRP,-0.724
2,RRIRIRPPRLPRPRPRPHLIPRP,-0.245
3,RRIRKRPPRLPRPRPRPDPSPRP,-0.0338
4,RRIRNRPPRLPRPRPRPHYYPRP,-0.356
5,RRIRQRPPRLPRPRPRPKLFPRP,-0.0707
6,RRIRARPPRLPRPRPRPCPNPRP,-0.0809
7,RRIRIRPPRLPRPRPRPWSWPRP,-0.0152
8,RRIRCRPPRLPRPRPRPKSRPRP,0.0706
9,RRIRCRPPRLPRPRPRPDPTPRP,0.0668
10,RRIRARPPRLPRPRPRPWWNPRP,-0.108
11,RRIRNRPPRLPRPRPRPCDTPRP,-0.0137
12,RRIRRRPPRLPRPRPRPAILPRP,-0.017
13,RRIRVRPPRLPRPRPRPDGYPRP,-0.00884
14,RRIRCRPPRLPRPRPRPGHFPRP,-0.217
15,RRIRCRPPRLPRPRPRPTRYPRP,-0.0935
16,RRIRIRPPRLPRPRPRPEQWPRP,-0.0237
17,RRIRTRPPRLPRPRPRPHEFPRP,-0.175
18,RRIRYRPPRLPRPRPRPDNPPRP,-0.877
19,RRIRHRPPRLPRPRPRPVHVPRP,-0.16
20,RRIRCRPPRLPRPRPRPTSSPRP,-0.11
21,RRIRHRPPRLPRPRPRPNVLPRP,-0.0715
22,RRIRIRPPRLPRPRPRPTERPRP,-0.0197

row,Sequence,shrunken log2 fold change
1,RRIRERPPRLPRPRPRPLVFPRP,-0.153
2,RRIRWRPPRLPRPRPRPPREPRP,0.808
3,RRIRWRPPRLPRPRPRPHTRPRP,-0.0595
4,RRIRQRPPRLPRPRPRPDYTPRP,-0.0424
5,RRIRNRPPRLPRPRPRPIDFPRP,-0.413
6,RRIRDRPPRLPRPRPRPGYQPRP,-0.0782
7,RRIRHRPPRLPRPRPRPYWIPRP,-0.124
8,RRIRERPPRLPRPRPRPTYHPRP,-0.407
9,RRIRKRPPRLPRPRPRPQLCPRP,0.129
10,RRIRERPPRLPRPRPRPMNHPRP,-0.811
11,RRIRMRPPRLPRPRPRPMSWPRP,0.132
12,RRIRQRPPRLPRPRPRPDCFPRP,0.291
13,RRIRKRPPRLPRPRPRPFKRPRP,-0.00663
14,RRIRSRPPRLPRPRPRPQVEPRP,0.0664
15,RRIRVRPPRLPRPRPRPASRPRP,0.275
16,RRIRWRPPRLPRPRPRPNKMPRP,0.075
17,RRIRARPPRLPRPRPRPFHSPRP,-0.217
18,RRIRPRPPRLPRPRPRPLFVPRP,-0.176
19,RRIRNRPPRLPRPRPRPWDRPRP,-0.0515
20,RRIRTRPPRLPRPRPRPYPSPRP,-0.575
21,RRIRYRPPRLPRPRPRPCMVPRP,-0.251
22,RRIRQRPPRLPRPRPRPAEVPRP,0.142

row,Sequence,shrunken log2 fold change
1,RRIRVRPPRLPRPRPRPAFWPRP,2.56
2,RRIRNRPPRLPRPRPRPNVYPRP,-0.17
3,RRIRGRPPRLPRPRPRPYNHPRP,-0.983
4,RRIRGRPPRLPRPRPRPHLVPRP,0.294
5,RRIRPRPPRLPRPRPRPLRPPRP,0.726
6,RRIRIRPPRLPRPRPRPNNVPRP,-0.7
7,RRIRPRPPRLPRPRPRPPLPPRP,0.814
8,RRIRSRPPRLPRPRPRPQLCPRP,0.0696
9,RRIRERPPRLPRPRPRPVYVPRP,-1.11
10,RRIRGRPPRLPRPRPRPSCGPRP,0.451
11,RRIRLRPPRLPRPRPRPRYEPRP,-0.286
12,RRIRYRPPRLPRPRPRPTRPPRP,0.472
13,RRIRDRPPRLPRPRPRPCDTPRP,-0.157
14,RRIRSRPPRLPRPRPRPWGGPRP,0.27
15,RRIRNRPPRLPRPRPRPWCMPRP,-0.312
16,RRIRARPPRLPRPRPRPYNAPRP,-1.2
17,RRIRPRPPRLPRPRPRPAMIPRP,-0.26
18,RRIRQRPPRLPRPRPRPDYSPRP,-0.0839
19,RRIRGRPPRLPRPRPRPTANPRP,1.09
20,RRIRLRPPRLPRPRPRPAWAPRP,0.232
21,RRIRCRPPRLPRPRPRPNWLPRP,-0.115
22,RRIRWRPPRLPRPRPRPWTHPRP,-0.11

row,Sequence,shrunken log2 fold change
1,RRIRSRPPRLPRPRPRPQIPPRP,-0.538
2,RRIRKRPPRLPRPRPRPILNPRP,-0.158
3,RRIRFRPPRLPRPRPRPKRHPRP,0.134
4,RRIRWRPPRLPRPRPRPGWDPRP,0.657
5,RRIRVRPPRLPRPRPRPNFTPRP,0.0054
6,RRIRVRPPRLPRPRPRPYYCPRP,-0.513
7,RRIRWRPPRLPRPRPRPDNLPRP,-0.188
8,RRIRDRPPRLPRPRPRPQIFPRP,-0.00965
9,RRIRERPPRLPRPRPRPFWVPRP,0.0389
10,RRIRMRPPRLPRPRPRPSVAPRP,0.44
11,RRIRYRPPRLPRPRPRPAQGPRP,-0.0469
12,RRIRTRPPRLPRPRPRPFAAPRP,0.08
13,RRIRNRPPRLPRPRPRPHAFPRP,-0.0636
14,RRIRDRPPRLPRPRPRPSQAPRP,0.136
15,RRIRTRPPRLPRPRPRPSKEPRP,-0.598
16,RRIRIRPPRLPRPRPRPDHFPRP,-0.0602
17,RRIRWRPPRLPRPRPRPFLTPRP,2.56
18,RRIRPRPPRLPRPRPRPFAGPRP,0.0806
19,RRIRHRPPRLPRPRPRPQGTPRP,-0.284
20,RRIRPRPPRLPRPRPRPVSIPRP,-0.271
21,RRIRMRPPRLPRPRPRPTFTPRP,0.141
22,RRIRGRPPRLPRPRPRPYHSPRP,-0.861

row,Sequence,shrunken log2 fold change
1,RRIRPRPPRLPRPRPRPWHHPRP,-0.209
2,RRIRGRPPRLPRPRPRPKKHPRP,0.655
3,RRIRARPPRLPRPRPRPRGIPRP,0.488
4,RRIRKRPPRLPRPRPRPFRDPRP,0.222
5,RRIRIRPPRLPRPRPRPACNPRP,-0.363
6,RRIRPRPPRLPRPRPRPQYPPRP,-0.133
7,RRIRKRPPRLPRPRPRPLADPRP,0.559
8,RRIRNRPPRLPRPRPRPGRQPRP,0.0171
9,RRIRTRPPRLPRPRPRPIYHPRP,-0.191
10,RRIRDRPPRLPRPRPRPCLCPRP,0.0206
11,RRIRMRPPRLPRPRPRPTGTPRP,0.407
12,RRIRLRPPRLPRPRPRPHDRPRP,-0.132
13,RRIRDRPPRLPRPRPRPYPQPRP,-0.582
14,RRIRWRPPRLPRPRPRPILFPRP,-0.456
15,RRIRQRPPRLPRPRPRPYVRPRP,-0.216
16,RRIRLRPPRLPRPRPRPPWKPRP,0.153
17,RRIRDRPPRLPRPRPRPLDHPRP,0.0841
18,RRIRRRPPRLPRPRPRPMQSPRP,0.0774
19,RRIRKRPPRLPRPRPRPHDYPRP,0.0206
20,RRIRGRPPRLPRPRPRPWSDPRP,0.0554
21,RRIRGRPPRLPRPRPRPWYWPRP,0.187
